Experimental data taken from publication PMC10916864 (Molecular Biology of the Cell, 2024).

Target: T1, His-mNeon-tagged EBP50 PDZ1-PDZ2 fragment (human, UniProt O14745-1 1-298)
T1 sequence (looked up): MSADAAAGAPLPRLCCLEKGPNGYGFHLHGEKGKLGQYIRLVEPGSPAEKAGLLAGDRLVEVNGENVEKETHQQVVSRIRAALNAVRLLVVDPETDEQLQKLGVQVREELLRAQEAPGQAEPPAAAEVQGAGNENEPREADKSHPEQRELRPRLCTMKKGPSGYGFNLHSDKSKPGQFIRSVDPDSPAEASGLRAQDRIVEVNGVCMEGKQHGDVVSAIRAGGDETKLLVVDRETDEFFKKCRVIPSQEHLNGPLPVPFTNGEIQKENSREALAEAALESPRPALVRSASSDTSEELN
Assay: pull-down

B1: GST-CDHR5 CD (GST fusion of the cytoplasmic tail of CDHR5) (domain or fragment, human, UniProt Q9HBB8-1 697-845, looked up)
chain: RLKCCCGKAPEPQPQGFDNQAFLPDHKANWAPVPSPTHDPKPAEAPMPAEPAPPGPASPGGAPEPPAAARAGGSPTAVRSILTKERRPEGGYKAVWFGEDIGTEADVVVLNAPTLDVDGASDSGSGDEGEGAGRGGGPYDAPGGDDSYI
B1: binds.
